Assay results: PMC11382572, “Structural and kinetic insights into the stereospecific oxidation of R-2,3-dihydroxypropanesulfonate by DHPS-3-dehydrogenase from Cupriavidus pinatubonensis” (Chemical Science, 2024)

Key:
Format in all cases: biochemical, Cupriavidus pinatubonensis
[1] = substrate: O=S(=O)(O)C[C@H](O)CO; experiment: purified protein; details: Zn2+, NAD+
[2] = substrate: O=CC(O)CS(=O)(=O)O; experiment: Michaelis-Menten kinetics (apparent KM); LCMS product; details: Zn2+, NAD+
[3] = substrate: NC(=O)c1ccc[n+]([C@@H]2O[C@H](COP(=O)([O-])OP(=O)(O)OC[C@H]3O[C@@H](n4cnc5c(N)ncnc54)[C@H](O)[C@@H]3O)[C@@H](O)[C@H]2O)c1; experiment: X-ray crystal structure by soaking (open conformation); Michaelis-Menten kinetics (apparent KM); details: Zn2+ nonproductive complex; nicotinamide group disordered, modelled with zero occupancy; varied: cofactor

B1: DHPS-3-dehydrogenase (CpHpsN) (Cupriavidus pinatubonensis JMP134) (protein)
chain: MISYLKKAEKTPQTETATAQKVVTEMLAEIQARGKDAVRQYAKQLDGWSGDIVLTPDQIREQTKDVPAGVRADIDFAIRQVTDFALAQRESLKEFSVELHPGVTAGQRVLPVNVVGCYAPAGRYAHIASAYMGVATAKAAGVKTVVACSSPFRGQGIHPHVLYAFQAAGADVIMALGGVQAIASMAYGLFTGKPADVVVGPGNKFVAEAKRSLYGQVGIDVFAGPSEVAVIADETADPAIVASDLVGQAEHGHESPAWLFTTSRDLADRVMALVPELIAKLPPTARDAATAAWRDYGEVILCGTREEVVEISDRYASEHLEVHTADLDWWLANLTCYGSLFLGEETTVAFGDKTSGPNHVLPTKGAARYSGGLSVHKFMKTLTWQQMTREATRQIGQVTARISRLEGMEAHARTADDRMAKYFPNASFEMGTPVEV
[1]
  Km: 1300 ± 150 µM
  kcat/Km: 750 ± 200 M⁻¹ s⁻¹
[2]
  Km: 360 ± 60 µM
  kcat/Km: 8600 ± 830 M⁻¹ s⁻¹
[3]
  Km: 470 ± 100 µM
  kcat/Km: 3400 ± 1100 M⁻¹ s⁻¹
